What was measured:
[1] = biological target: T1, human GP130 delta D1-D3 with C-terminal myc-myc hexahistidine tag (human, UniProt P40189 329-619); assay: Luminex, antigen captured on anti-myc beads
T1 construct: used as CHO supernatant; also called human GP130 delta D1-D3-MMH; GP130 Delta D1-D3 extracellular domain
Description: Aliquots of microspheres with immobilized anti-myc monoclonal antibodies, prepared as described above, were added individually to 1 mL of the each of these protein supernatants and to 500 uL of purified GP130 protein. The microspheres were gently mixed, incubated for two hours at 25° C., washed twice with 1 mL of DBPS, centrifuged to remove the supernatant and finally resuspended in 1 mL of DPBS buffer. Forty eight μL of anti-myc IgG coupled microspheres from individual reactions with full length human GP130 and with each of the human GP130 domain proteins were withdrawn and mixed together in 3.6 mL of PBS+20 mg/mL BSA+0.05% sodium azide (blocking buffer).
From this mixed pool, 75 μL of microspheres were plated per well on a 96 well filter plate (Millipore, Cat. No: MSBVN1250) and mixed with 25 μL of individual anti-human GP130 monoclonal antibodies (0.5 or 5 μg/mL), incubated for two hours at 25° C. and then washed twice with 200 μL of DPBS with 0.05% Tween 20 (washing buffer). To detect and quantify the amounts of bound anti-GP130 antibody levels to individual microspheres, either 100 μL of 2.5 μg/mL R-Phycoerythrin conjugated goat F(ab′)2 anti-human kappa (Southern Biotech, Cat #2063-09) in blocking buffer, was added and incubated for 30 minutes at 25° C. After 30 minutes, the samples were washed twice with 200 μL of washing buffer and resuspended in 150 μL of wash buffer. The Median Fluorescence intensity (MFI) of the microspheres was measured in a Luminex Analyzer.

[2] = biological target: T2, human GP130 extracellular domain expressed with a C-terminal myc-myc-hexahistidine tag (human, UniProt P40189 23-619); assay: SPR (Biacore 4000), mAb captured on anti-human Fc, 37 C
T2 construct: Monomeric reagent; also called hGP130-mmH; hGP130-MMH
Description: (§1) Equilibrium dissociation constant (KD) for different GP130 reagents binding to purified anti-GP130 monoclonal antibodies were determined using a real-time surface plasmon resonance based Biacore 4000 biosensor. All binding studies were performed in 10 mM HEPES, 150 mM NaCl, 3 mM EDTA, and 0.05% v/v Surfactant Tween-20, pH 7.4 (HBS-ET) running buffer at 25° C. and 37° C. The Biacore sensor surface was first derivatized by amine coupling with a monoclonal mouse anti-human Fc antibody (GE, #BR-1008-39) to capture anti-GP130 monoclonal antibodies. […] Reagents tagged with “mmH” are monomeric, whereas reagents tagged with “mFc” are dimeric. Thus, for example, “hGP130-mmH” is also referred to as “monomeric human GP130,” and “hGP130-mFc” is also referred to as “dimeric human GP130.”
(§2) The association rate (k a) and dissociation rate (kd) were determined by fitting the real-time binding sensorgrams to a 1:1 binding model with mass transport limitation using Scrubber 2.0c curve-fitting software. Binding dissociation equilibrium constant (KD) and dissociative half-life (t ½) were calculated from the kinetic rates as: […]

[3] = biological target: T3, Macaca fascicularis GP130 extracellular domain expressed with a C-terminal myc-myc-hexahistidine tag (Macaca fascicularis, UniProt P40189 23-619 (human entry)); assay: as above
T3 construct: Monomeric reagent; also called mfGP130-mmH; mfGP130-MMH
T3 chain: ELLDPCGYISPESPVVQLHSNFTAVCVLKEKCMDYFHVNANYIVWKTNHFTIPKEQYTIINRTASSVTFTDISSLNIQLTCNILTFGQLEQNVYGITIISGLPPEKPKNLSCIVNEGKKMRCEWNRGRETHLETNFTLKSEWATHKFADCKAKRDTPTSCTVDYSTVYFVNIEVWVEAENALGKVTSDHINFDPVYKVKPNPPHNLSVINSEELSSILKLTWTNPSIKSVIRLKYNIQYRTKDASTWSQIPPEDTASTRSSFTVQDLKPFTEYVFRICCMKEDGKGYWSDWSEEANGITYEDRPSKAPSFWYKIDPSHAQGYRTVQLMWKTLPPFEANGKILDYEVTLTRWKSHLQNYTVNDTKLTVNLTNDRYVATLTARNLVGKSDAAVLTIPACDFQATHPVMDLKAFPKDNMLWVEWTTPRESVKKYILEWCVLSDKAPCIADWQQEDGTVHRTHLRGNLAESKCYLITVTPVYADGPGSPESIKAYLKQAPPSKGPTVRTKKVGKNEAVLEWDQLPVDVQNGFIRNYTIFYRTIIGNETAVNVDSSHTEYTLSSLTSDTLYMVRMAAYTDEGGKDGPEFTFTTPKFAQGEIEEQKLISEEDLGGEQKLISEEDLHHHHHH
Description: as §1, §2

[4] = biological target: T3, Macaca fascicularis GP130 extracellular …; assay: SPR (Biacore 4000), mAb captured on anti-human Fc, 25 C
Description: as §1, §2

[5] = biological target: T4, rat GP130 extracellular domain expressed with a C-terminal myc-myc-hexahistidine tag (rGP130-mmH) (rat, UniProt P40190 23-618); assay: SPR Biacore, mAb captured via anti-hFc, 37 C
T4 construct: Monomeric; the entry includes the myc-myc-His tag
Description: as §1, §2

[6] = biological target: T5, human GP130 extracellular domain expressed with a C-terminal mouse IgG2a Fc tag (hGP130-mFc) (human); assay: SPR Biacore, mAb captured via anti-hFc, 37 C
T5 construct: also called dimeric human GP130
T5 chain: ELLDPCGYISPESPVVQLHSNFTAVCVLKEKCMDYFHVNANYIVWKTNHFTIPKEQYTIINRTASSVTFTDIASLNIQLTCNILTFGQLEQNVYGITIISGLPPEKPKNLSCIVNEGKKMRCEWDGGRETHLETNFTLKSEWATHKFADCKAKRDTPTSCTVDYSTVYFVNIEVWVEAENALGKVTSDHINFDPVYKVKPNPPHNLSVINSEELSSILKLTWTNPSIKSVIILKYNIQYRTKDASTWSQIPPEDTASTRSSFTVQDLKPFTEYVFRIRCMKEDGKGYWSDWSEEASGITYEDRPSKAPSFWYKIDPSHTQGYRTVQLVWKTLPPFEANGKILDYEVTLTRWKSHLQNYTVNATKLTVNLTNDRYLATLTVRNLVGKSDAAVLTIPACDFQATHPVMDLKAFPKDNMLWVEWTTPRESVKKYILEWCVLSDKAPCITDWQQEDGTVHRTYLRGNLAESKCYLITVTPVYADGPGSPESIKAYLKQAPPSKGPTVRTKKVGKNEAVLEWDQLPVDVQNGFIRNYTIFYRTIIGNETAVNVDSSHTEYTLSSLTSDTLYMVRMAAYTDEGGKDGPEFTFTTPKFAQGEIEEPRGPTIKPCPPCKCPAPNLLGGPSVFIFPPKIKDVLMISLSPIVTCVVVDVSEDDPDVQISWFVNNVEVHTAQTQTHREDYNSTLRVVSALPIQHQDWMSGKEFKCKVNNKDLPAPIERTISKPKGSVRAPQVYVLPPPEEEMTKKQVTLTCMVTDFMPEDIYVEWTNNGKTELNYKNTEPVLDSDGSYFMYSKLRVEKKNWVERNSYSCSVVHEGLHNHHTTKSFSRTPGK
Description: as §1, §2

[7] = biological target: T6, mouse GP130 extracellular domain expressed with a C-terminal myc-myc-hexahistidine tag (mGP130-mmH) (mouse, UniProt Q00560 23-617); assay: SPR Biacore, mAb captured via anti-hFc, 37 C
T6 construct: Monomeric; the entry includes the myc-myc-His tag
Description: as §1, §2

[8] = biological target: T4, rat GP130 extracellular domain …; assay: SPR Biacore, mAb captured via anti-hFc, 25 C
Description: as §1, §2

[9] = biological target: T5, human GP130 extracellular domain …; assay: SPR Biacore, mAb captured via anti-hFc, 25 C
Description: as §1, §2

[10] = biological target: T6, mouse GP130 extracellular domain …; assay: SPR Biacore, mAb captured via anti-hFc, 25 C
Description: as §1, §2

B1: MAb16680 (antibody, V domains shown)
VH: QVQLQQSGPGQMKSSQTLTLTCAISGDSVSSNSAIWYWIRQSPSRGLEWLGRTKFRSKWYNDFALSMKSRITINPDTSKNQFSLHLNSVTPEDTAVYYCARYKWELYFDYWGQGTLVTVSS
VL: not shown
notes: hIgG4 isotype control used
Luminex MFI signal [1]: 18700 MFI

B2: MAb16683 (antibody, V domains shown)
VH: QVQLVESGGGLVKPGGSLRLSCAASGFTFSDYYMTWIRQTPGKGLDWVSYISSSGTNKYNADSVKGRFTISRDNAKNSLYLQMNSLRAEDTAVYYCVRDPPWGMDVWGQGTTVTVSS
VL: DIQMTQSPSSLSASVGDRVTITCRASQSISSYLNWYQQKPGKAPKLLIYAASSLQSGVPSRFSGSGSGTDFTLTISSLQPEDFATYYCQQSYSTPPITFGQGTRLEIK
100 nM Ag Bound [2]: 38 RU
Kd [2]: 117 nM
koff [2]: 0.0125 s⁻¹
kon [2]: 107000 M⁻¹ s⁻¹
t½ [2]: 0.9 min
100 nM Ag Bound [3]: 43 RU
Kd [3]: 125 nM
koff [3]: 0.0121 s⁻¹
kon [3]: 96500 M⁻¹ s⁻¹
t½ [3]: 1 min
100 nM Ag Bound [4]: 59 RU
Kd [4]: 37.4 nM
koff [4]: 0.00246 s⁻¹
kon [4]: 65700 M⁻¹ s⁻¹
t½ [4]: 5 min

B3: MAb16614 (antibody, V domains shown)
VH: QVQLVESGGGVVQPGGSLRLSCAASGFTFSTYDIHWVRQAPGKGLEWVAVISFDGSNRNYGDSVKGRFTISRDNSDNTLFLEMNNLRFEDTAVYYCAKEGYGVDFQHWGQGTLVTVSS
VL: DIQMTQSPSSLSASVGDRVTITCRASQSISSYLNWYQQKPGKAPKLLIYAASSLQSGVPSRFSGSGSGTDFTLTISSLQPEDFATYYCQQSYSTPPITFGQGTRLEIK
notes: captured through anti-human Fc
100 nM Ag Bound (RU) [5]: 0 RU
100 nM Ag Bound (RU) [6]: 85 RU
Kd [6]: 9.56 nM
koff [6]: 0.00172 s⁻¹
kon [6]: 180000 M⁻¹ s⁻¹
t½ [6]: 7 min
100 nM Ag Bound (RU) [7]: 0 RU
100 nM Ag Bound (RU) [8]: 0 RU
binding result [8]: no binding (tested: 100 nM)
100 nM Ag Bound (RU) [9]: 83 RU
Kd [9]: 4.47 nM
koff [9]: 0.000383 s⁻¹
kon [9]: 85700 M⁻¹ s⁻¹
t½ [9]: 30 min
100 nM Ag Bound (RU) [10]: 1 RU
binding result [10]: no binding (tested: 100 nM)

B4: MAb16618 (antibody, V domains shown)
VH: QVQLQESGPGLVKPSETLSLTCTVSGGSISNYYWTWIRQPPGKGLEWIGHISNSGTTNYNPSLKSRVTISVDTSKNQFSLKLTSVTAADTAVYYCARLPLGIAAVDTDYYYYFGMDVWGQGTTVTVSS
VL: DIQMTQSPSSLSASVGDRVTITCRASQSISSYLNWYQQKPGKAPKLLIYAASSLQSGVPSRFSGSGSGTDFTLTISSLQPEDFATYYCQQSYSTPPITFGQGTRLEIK
notes: as for B3
100 nM Ag Bound (RU) [5]: 2 RU
100 nM Ag Bound (RU) [6]: 236 RU
Kd [6]: 0.674 nM
koff [6]: 0.000934 s⁻¹
kon [6]: 1.39e+06 M⁻¹ s⁻¹
t½ [6]: 12 min
100 nM Ag Bound (RU) [7]: 0 RU
100 nM Ag Bound (RU) [8]: 6 RU
binding result [8]: no binding (tested: 100 nM)
100 nM Ag Bound (RU) [9]: 202 RU
Kd [9]: 0.236 nM
koff [9]: 0.000279 s⁻¹
kon [9]: 1.19e+06 M⁻¹ s⁻¹
t½ [9]: 41 min
100 nM Ag Bound (RU) [10]: 1 RU
binding result [10]: no binding (tested: 100 nM)

B5: MAb16622 (antibody, V domains shown)
VH: EVQLVESGGGVVRPGGSLRLSCTASGFTFDDYGMSWVRQAPGKGLEWVSGINWNGGRTEYADAVKGRFIISRDNAKNSLYLQMNSLRAEDTALYFCARTELRWDYWGQGTLVTVSS
VL: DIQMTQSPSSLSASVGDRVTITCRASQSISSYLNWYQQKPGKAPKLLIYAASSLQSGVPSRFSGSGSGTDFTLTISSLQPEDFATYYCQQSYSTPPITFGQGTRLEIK
notes: as for B3
100 nM Ag Bound (RU) [5]: 1 RU
100 nM Ag Bound (RU) [6]: 201 RU
Kd [6]: 1.29 nM
koff [6]: 0.000825 s⁻¹
kon [6]: 639000 M⁻¹ s⁻¹
t½ [6]: 14 min
100 nM Ag Bound (RU) [7]: 1 RU
100 nM Ag Bound (RU) [8]: 0 RU
binding result [8]: no binding (tested: 100 nM)
100 nM Ag Bound (RU) [9]: 164 RU
Kd [9]: 0.615 nM
koff [9]: 0.000306 s⁻¹
kon [9]: 497000 M⁻¹ s⁻¹
t½ [9]: 38 min
100 nM Ag Bound (RU) [10]: 1 RU
binding result [10]: no binding (tested: 100 nM)

B6: MAb16623 (antibody, V domains shown)
VH: EVQLVESGGGLVQPGGSLRLSCAASGLTFSSYEMNWVRQAPGKGLEWVSHISSAGSTKYYADSVKGRFTISRDNAKNSLFLQMNSLRAEDTAIYYCAGYNYAYYYFGVDVWGQGTTVTVSS
VL: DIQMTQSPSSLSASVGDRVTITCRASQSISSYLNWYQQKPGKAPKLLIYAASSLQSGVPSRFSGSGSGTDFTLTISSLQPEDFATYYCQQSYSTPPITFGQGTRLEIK
notes: as for B3
100 nM Ag Bound (RU) [5]: 0 RU
100 nM Ag Bound (RU) [6]: 224 RU
Kd [6]: 0.56 nM
koff [6]: 0.000325 s⁻¹
kon [6]: 580000 M⁻¹ s⁻¹
t½ [6]: 36 min
100 nM Ag Bound (RU) [7]: 0 RU
100 nM Ag Bound (RU) [8]: 0 RU
binding result [8]: no binding (tested: 100 nM)
100 nM Ag Bound (RU) [9]: 184 RU
Kd [9]: 0.468 nM
koff [9]: 0.000208 s⁻¹
kon [9]: 444000 M⁻¹ s⁻¹
t½ [9]: 56 min
100 nM Ag Bound (RU) [10]: 0 RU
binding result [10]: no binding (tested: 100 nM)

B7: MAb16680 (antibody, V domains shown)
VH: B1 VH
VL: not shown
notes: as for B3
100 nM Ag Bound (RU) [5]: 1 RU
100 nM Ag Bound (RU) [7]: 0 RU
binding result [7]: no binding (tested: 100 nM)
100 nM Ag Bound (RU) [8]: 2 RU
binding result [8]: no binding (tested: 100 nM)
100 nM Ag Bound (RU) [10]: 0 RU

Reference: US20240158497A1 (published 2024)
